Assay results from the Immune Epitope Database (IEDB).

What was measured:
[1] = molecular target: HLA-A*68:02; test: IEDB peptide-MHC binding, cellular MHC/competitive/fluorescence; ≥ and ≤ were set here for values at or beyond the usual limits of such assays
[2] = molecular target: HLA-A*02:02; test: IEDB peptide-MHC binding, purified MHC/competitive/radioactivity; ≥ and ≤ were set here for values at or beyond the usual limits of such assays
[3] = molecular target: HLA-A*02:03; test: as above
[4] = molecular target: HLA-A*02:06; test: as above
[5] = molecular target: HLA-A*02:01; test: IEDB peptide-MHC binding, cellular MHC/competitive/fluorescence; ≥ and ≤ were set here for values at or beyond the usual limits of such assays
[6] = molecular target: HLA-A*68:02; test: IEDB peptide-MHC binding, purified MHC/competitive/radioactivity; ≥ and ≤ were set here for values at or beyond the usual limits of such assays
[7] = molecular target: HLA-A*02:01; test: as above; details: source organism: Influenza A virus
[8] = source organism: Influenza A virus
[9] = source organism: Vaccinia virus WR
[10] = source organism: Mammarenavirus brazilense
[11] = source organism: Hepacivirus hominis
[12] = source organism: Mammarenavirus choriomeningitidis

Sequence: AMDSNTLEL
- IC50 [1, 8]: ≥ 70 µM
- IC50 [2, 8]: 0.254 µM
- IC50 [3, 8]: 0.524 µM
- IC50 [4, 8]: 1.95 µM

Sequence: SIAMLKSKNI
- IC50 [5, 9]: 14 µM
- IC50 [2, 9]: 1.09 µM
- IC50 [3, 9]: 0.055 µM
- IC50 [4, 9]: 0.259 µM
- IC50 [6, 9]: 2.1 µM

Sequence: GLISLILQI
- IC50 [1, 8]: 12.4 µM
- IC50 [2, 8]: 0.027 µM
- IC50 [3, 8]: 0.0054 µM
- IC50 [4, 8]: 0.205 µM

Sequence: TITTFIPISA
- IC50 [5, 9]: 9.69 µM
- IC50 [2, 9]: 4.06 µM
- IC50 [3, 9]: 0.176 µM
- IC50 [4, 9]: 4.84 µM
- IC50 [6, 9]: 0.304 µM

Sequence: YAGTIKESL
- IC50 [5, 9]: 21.1 µM
- IC50 [2, 9]: 2.07 µM
- IC50 [3, 9]: 2.49 µM
- IC50 [4, 9]: 3.3 µM
- IC50 [6, 9]: 0.361 µM

Sequence: DVNSVQFSIL
- IC50 [5, 9]: 6.66 µM
- IC50 [2, 9]: 2.27 µM
- IC50 [3, 9]: 1.66 µM
- IC50 [4, 9]: 3.4 µM
- IC50 [6, 9]: 2.77 µM

Sequence: NIKISLNEIL
- IC50 [5, 9]: 9.63 µM
- IC50 [2, 9]: 0.705 µM
- IC50 [3, 9]: 1.39 µM
- IC50 [4, 9]: 0.557 µM
- IC50 [6, 9]: 1.61 µM

Sequence: TIVSRSSRGV
- IC50 [5, 9]: 11.3 µM
- IC50 [2, 9]: 4.7 µM
- IC50 [3, 9]: 0.011 µM
- IC50 [4, 9]: 3.74 µM
- IC50 [6, 9]: 1.26 µM

Sequence: PLHIVCSKT
- IC50 [5, 9]: 7.94 µM
- IC50 [2, 9]: 0.997 µM
- IC50 [3, 9]: 2.15 µM
- IC50 [4, 9]: 3.89 µM
- IC50 [6, 9]: 1.88 µM

Sequence: PASISSVLTI
- IC50 [5, 9]: 5.91 µM
- IC50 [2, 9]: 1.35 µM
- IC50 [3, 9]: 0.083 µM
- IC50 [4, 9]: 1.55 µM
- IC50 [6, 9]: 4.51 µM

Sequence: LSNCVHPAV
- IC50 [5, 10]: 12.2 µM
- IC50 [2, 10]: 0.427 µM
- IC50 [3, 10]: 1.1 µM
- IC50 [4, 10]: 0.461 µM
- IC50 [6, 10]: 0.682 µM

Sequence: LLGCIITSL
- IC50 [1, 11]: ≥ 70 µM
- IC50 [2, 11]: 0.079 µM
- IC50 [3, 11]: 0.121 µM
- IC50 [4, 11]: 3.13 µM

Sequence: AMWLLLLSI
- IC50 ([1]; source organism: SARS-CoV1): 27.7 µM
- IC50 ([2]; source organism: SARS-CoV1): 0.357 µM
- IC50 ([3]; source organism: SARS-CoV1): 0.205 µM
- IC50 ([4]; source organism: SARS-CoV1): 0.268 µM

Sequence: FVNFNSVKNL
- IC50 [5, 9]: 8.72 µM
- IC50 [2, 9]: 2.02 µM
- IC50 [3, 9]: 0.318 µM
- IC50 [4, 9]: 2.2 µM
- IC50 [6, 9]: 0.121 µM

Sequence: LNMFVSDQV
- IC50 [5, 12]: 5.76 µM
- IC50 [2, 12]: 0.018 µM
- IC50 [3, 12]: 0.88 µM
- IC50 [4, 12]: 4.81 µM
- IC50 [6, 12]: 0.007 µM

Sequence: YIESKAKQL
- IC50 [5, 9]: 9.62 µM
- IC50 [2, 9]: 0.144 µM
- IC50 [3, 9]: 0.439 µM
- IC50 [4, 9]: 2.99 µM
- IC50 [6, 9]: 1.34 µM

Sequence: AVKFAEESYT
- IC50 [5, 9]: 7.83 µM
- IC50 [2, 9]: 1.76 µM
- IC50 [3, 9]: 1.47 µM
- IC50 [4, 9]: 2.26 µM
- IC50 [6, 9]: 2.29 µM

Sequence: KINEMVDELV
- IC50 [5, 9]: 26.4 µM
- IC50 [2, 9]: 0.587 µM
- IC50 [3, 9]: 0.492 µM
- IC50 [4, 9]: 3.06 µM
- IC50 [6, 9]: 4.96 µM

Sequence: RQDYRRSINV
- IC50 [5, 9]: 10.2 µM
- IC50 [2, 9]: 1.01 µM
- IC50 [3, 9]: 0.375 µM
- IC50 [4, 9]: 2.22 µM
- IC50 [6, 9]: 3.97 µM

Sequence: ILGFVFTL
- IC50 [1, 8]: ≥ 70 µM
- IC50 [7]: 0.0012 µM

Sequence: KTVKNVDII
- IC50 [5, 9]: 8.73 µM
- IC50 [2, 9]: 0.607 µM
- IC50 [3, 9]: 1.79 µM
- IC50 [4, 9]: 0.698 µM
- IC50 [6, 9]: 1.17 µM

Sequence: VLPFDIKYI
- IC50 [1, 9]: 9.87 µM
- IC50 [2, 9]: 0.135 µM
- IC50 [3, 9]: 0.0097 µM
- IC50 [4, 9]: 0.506 µM

Sequence: NITTLLNET
- IC50 [5, 9]: 39.2 µM
- IC50 [2, 9]: 1.3 µM
- IC50 [3, 9]: 2.9 µM
- IC50 [4, 9]: 2.31 µM
- IC50 [6, 9]: 1.54 µM

Sequence: GLIYNRMGA
- IC50 [5, 8]: 16.7 µM
- IC50 [1, 8]: ≥ 70 µM

Sequence: STAEQLSKYV
- IC50 [5, 9]: 8.21 µM
- IC50 [2, 9]: 1.06 µM
- IC50 [3, 9]: 1.87 µM
- IC50 [4, 9]: 0.697 µM
- IC50 [6, 9]: 0.028 µM

Sequence: LVKESMASL
- IC50 [5, 9]: 14.3 µM
- IC50 [2, 9]: 1.12 µM
- IC50 [3, 9]: 0.0095 µM
- IC50 [4, 9]: 0.136 µM
- IC50 [6, 9]: 2.07 µM

Sequence: MMMNWSPTT
- IC50 [1, 11]: 17.9 µM
- IC50 [2, 11]: 0.311 µM
- IC50 [3, 11]: 0.106 µM
- IC50 [4, 11]: 1.23 µM

Sequence: LMYKGLPWNV
- IC50 ([1]; source organism: SARS-CoV1): 5.4 µM
- IC50 ([2]; source organism: SARS-CoV1): 0.0018 µM
- IC50 ([3]; source organism: SARS-CoV1): 0.0053 µM
- IC50 ([4]; source organism: SARS-CoV1): 0.037 µM

Sequence: LVAEHRFENM
- IC50 [5, 9]: ≥ 70 µM
- IC50 [2, 9]: 2.05 µM
- IC50 [3, 9]: 0.462 µM
- IC50 [4, 9]: 0.723 µM
- IC50 [6, 9]: 1.4 µM

Sequence: EATFIDVHI
- IC50 [5, 9]: 10.7 µM
- IC50 [2, 9]: 1.66 µM
- IC50 [3, 9]: 0.862 µM
- IC50 [4, 9]: 3.43 µM
- IC50 [6, 9]: 0.00013 µM

Sequence: STFNMWREIL
- IC50 [5, 9]: 6 µM
- IC50 [2, 9]: 3.12 µM
- IC50 [3, 9]: 0.907 µM
- IC50 [4, 9]: 3.36 µM
- IC50 [6, 9]: 0.067 µM

Sequence: YAGTIKESLL
- IC50 [5, 9]: 21.9 µM
- IC50 [2, 9]: 1.02 µM
- IC50 [3, 9]: 4.04 µM
- IC50 [4, 9]: 1.77 µM
- IC50 [6, 9]: 1.91 µM

Sequence: SAVFKDSFL
- IC50 [5, 9]: 6.06 µM
- IC50 [2, 9]: 0.231 µM
- IC50 [3, 9]: 0.536 µM
- IC50 [4, 9]: 1.14 µM
- IC50 [6, 9]: 0.11 µM

Sequence: NASKTINALV
- IC50 [5, 9]: 8.46 µM
- IC50 [2, 9]: 0.765 µM
- IC50 [3, 9]: 0.274 µM
- IC50 [4, 9]: 3.22 µM
- IC50 [6, 9]: 0.021 µM

Sequence: IAIFNNRNLA
- IC50 [5, 9]: 6.3 µM
- IC50 [2, 9]: 3.35 µM
- IC50 [3, 9]: 1.48 µM
- IC50 [4, 9]: 0.89 µM
- IC50 [6, 9]: 1.49 µM

Sequence: YVIRHVDGKI
- IC50 [5, 9]: 8.59 µM
- IC50 [2, 9]: 0.621 µM
- IC50 [3, 9]: 0.114 µM
- IC50 [4, 9]: 0.522 µM
- IC50 [6, 9]: 0.022 µM

Sequence: ILGFVFTLTV
- IC50 [1, 8]: 5.02 µM
